Reference: patent US20060183119A1, “Method for determining predisposition to a physiological reaction in a patient” (UNIVERSITE LAVAL, priority 2002, published 2006)

How the values were obtained:
human UGT1A9*3 = molecular target: T1, human UGT1A9*3 (Homo sapiens, UniProt O60656, M33T); assay: Glucuronidation by microsomes of HEK-293 cells stably expressing UGT1A9*3
T1 sequence (O60656 26-530 M33T): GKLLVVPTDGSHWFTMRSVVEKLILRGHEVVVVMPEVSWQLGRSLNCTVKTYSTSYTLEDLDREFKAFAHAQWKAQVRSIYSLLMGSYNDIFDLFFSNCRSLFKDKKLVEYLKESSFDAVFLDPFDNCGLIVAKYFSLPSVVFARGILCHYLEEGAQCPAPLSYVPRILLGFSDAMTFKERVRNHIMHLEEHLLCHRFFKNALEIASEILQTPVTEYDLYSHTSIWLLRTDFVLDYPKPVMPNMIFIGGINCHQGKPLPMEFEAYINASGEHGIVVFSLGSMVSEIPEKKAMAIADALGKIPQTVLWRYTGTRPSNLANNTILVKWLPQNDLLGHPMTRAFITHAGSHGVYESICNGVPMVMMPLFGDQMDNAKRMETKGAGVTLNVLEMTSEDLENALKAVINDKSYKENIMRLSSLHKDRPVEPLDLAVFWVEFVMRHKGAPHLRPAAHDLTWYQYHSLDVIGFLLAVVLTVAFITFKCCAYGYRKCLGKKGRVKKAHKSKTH
Experimental: (§1) Microsomal fractions from HEK-293 cells stably expressing human UGT1A9*1, UGT1A9*2 and UGT1A9*3 were used in enzymatic assays. Reactions (100 μl volume) contained 50 mM Tris-HCl, pH 7.3, 10 mM MgCl2, 100 μg/mL phosphatidylcholine, 1 mM UDP-glucuronic acid, 40 to 60 μg of membrane protein. […] Human liver microsome were incubated in the same condition for control. Reaction was stopped by the addition of 200 μL MeOH+1% HCl 2N, followed by centrifugation at 14000 rpm for 10 minutes. Supernatant was filtered through a 0.22 μm filter and 100 μL of water was added. For SN-38 and SN-38-glucuronide detection, 10 μL samples were injected on a liquid chromatographic system coupled to a fluorescence detector. Time-course experiments were realized to determine the linearity of the glucuronidation reaction.
(§2) A liquid chromatographic method was developed to quantify SN-38 glucuronidation of UGT cell line-derived microsomes and human liver microsomes. Samples were analyzed using high performance liquid chromatography (Alliance 2695, Waters, Milford, Mass.). […] At a constant flow rate (0.7 ml/min), a linear gradient from 20 to 65% B was run over 3 min, held 0.8 min and a second gradient until 95% of B was run over 2 min and then re-equilibrated to 20% B over 2 min. The effluent from the HPLC system (Alliance 2695) was connected directly to a fluorescence detector (Waters, Milford, Mass.) using an excitation wavelength of […] and an emission of 460 nm. […] Determination of the glucuronidation rates obtained with other substrates was performed as currently known in the art.
(§3) Microsomal fractions from HEK293 (40 to 60 μg) were added to a reaction mixture (100 μL) containing 50 mM Tris-HCl, pH 7.3, 10 mM MgCl2, 100 μg/mL phosphatidylcholine and 2 mM UDP-glucuronic acid. […] Commercially available human liver microsomes (Human Cell Culture Center Inc., Laurel, Md.) were incubated in the same conditions for all experiments. Time-course experiments were performed to determine the linearity of the glucuronidation reaction. For the determination of Vmax and Km. HEK293 cells stably expressing UGT1A9 enzymes were incubated in the presence of various concentrations of SN-38 ranging from 0.1 to 200 μM and incubated for 30 min as described above whereas UGT1A7 membranes preparations were incubated for 3 hours. […] Reactions with SN-38 were stopped by the addition of 200 μL MeOH+1% HCl 2N, followed by centrifugation at 14000×g for 10 minutes. The supernatants were filtered through a 0.22 μm membrane and 100 μL of water was added to the filtrate. For the detection of SN-38 and its glucuronide (SN-38G), 10 μL samples were injected in a liquid chromatographic system (HPLC) coupled to fluorescence detector as described below.
(§4) A HPLC method was developed to quantify the rates of SN-38 glucuronidation from the various microsomal fractions under study. The HPLC system used was an Alliance 2695 (Waters, Milford, Mass.) equipped with a 50×3.2 mm Colombus C18 column (Phenomenex, Torrance, Calif.). […] Then a second gradient ranging from 65% to 95% solvent B was generated during the following 2 min. Finally, the column was re-equilibrated to 20% solvent B for 2 min. The column was connected to a fluorescence detector model 474 (Waters, Milford, Mass.) and the molecules were excited at a wavelength of 370 nm and an emission of 425 nm.

human UGT1A9*2 = molecular target: T2, human UGT1A9*2 (Homo sapiens, UniProt O60656, C3Y); assay: Glucuronidation by microsomes of HEK-293 cells stably expressing UGT1A9*2; details: 5 μM and 200 μM of flavopiridol
T2 sequence (O60656 26-530): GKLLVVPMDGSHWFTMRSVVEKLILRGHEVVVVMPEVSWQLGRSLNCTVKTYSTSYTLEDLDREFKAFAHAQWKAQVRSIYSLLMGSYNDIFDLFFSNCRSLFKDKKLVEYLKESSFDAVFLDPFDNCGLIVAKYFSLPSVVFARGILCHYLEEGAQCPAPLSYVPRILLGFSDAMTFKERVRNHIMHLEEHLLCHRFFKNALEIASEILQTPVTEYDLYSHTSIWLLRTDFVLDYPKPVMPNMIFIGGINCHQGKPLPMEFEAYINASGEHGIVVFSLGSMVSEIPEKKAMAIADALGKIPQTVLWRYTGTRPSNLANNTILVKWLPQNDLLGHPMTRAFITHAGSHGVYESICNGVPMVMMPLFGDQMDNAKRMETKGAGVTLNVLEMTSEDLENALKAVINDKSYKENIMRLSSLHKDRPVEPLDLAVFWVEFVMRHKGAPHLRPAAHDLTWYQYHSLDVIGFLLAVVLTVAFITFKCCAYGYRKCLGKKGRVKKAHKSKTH
Experimental: as §1, §2, §3, §4

[1] = test system: COc1c(C)c2c(c(O)c1C/C=C(\C)CCC(=O)O)C(=O)OC2; assay: cells, lysate or membranes named; details: other: MPA glucuronidation; pH 7.3; 37.0 °C
[2] = substrate: COc1c(C)c2c(c(O)c1C/C=C(\C)CCC(=O)O)C(=O)OC2; assay: cells, lysate or membranes named; details: other: MPA glucuronidation; pH 7.3; 37.0 °C; remark: listed apart in the source

Molecule: CN1CC[C@H](c2c(O)cc(O)c3c(=O)cc(-c4ccccc4Cl)oc23)[C@H](O)C1 [Flavopiridol, flavopiridol]
- formation of flavopiridol-G compared to the UGT1A9*1 allele (human UGT1A9*3; 5 μM and 200 μM of flavopiridol): not statistically different
- formation of flavopiridol-G compared to the UGT1A9*1 allele (human UGT1A9*2): not statistically different

Molecule: COc1c(C)c2c(c(O)c1C/C=C(\C)CCC(=O)O)C(=O)OC2 [MPA, mycophenolic acid]
- effect of codon 33 variation on affinity of the protein for the substrate (in words) (human UGT1A9*3; versus UGT1A9*1): dramatically reduced

Molecule: human UGT1A9*2 (Homo sapiens; C3Y)
- Km [1]: 303 µM
- Vmax [1]: 0.0084 µmol/min/mg

B1: human UGT1A9*1 (Homo sapiens) (protein)
chain: GKLLVVPMDGSHWFTMRSVVEKLILRGHEVVVVMPEVSWQLGRSLNCTVKTYSTSYTLEDLDREFKAFAHAQWKAQVRSIYSLLMGSYNDIFDLFFSNCRSLFKDKKLVEYLKESSFDAVFLDPFDNCGLIVAKYFSLPSVVFARGILCHYLEEGAQCPAPLSYVPRILLGFSDAMTFKERVRNHIMHLEEHLLCHRFFKNALEIASEILQTPVTEYDLYSHTSIWLLRTDFVLDYPKPVMPNMIFIGGINCHQGKPLPMEFEAYINASGEHGIVVFSLGSMVSEIPEKKAMAIADALGKIPQTVLWRYTGTRPSNLANNTILVKWLPQNDLLGHPMTRAFITHAGSHGVYESICNGVPMVMMPLFGDQMDNAKRMETKGAGVTLNVLEMTSEDLENALKAVINDKSYKENIMRLSSLHKDRPVEPLDLAVFWVEFVMRHKGAPHLRPAAHDLTWYQYHSLDVIGFLLAVVLTVAFITFKCCAYGYRKCLGKKGRVKKAHKSKTH
- Km [2]: 495 µM
- Vmax [2]: 0.00941 µmol/min/mg

B2: human UGT1A9*3 (Homo sapiens; M33T) (protein)
chain: GKLLVVPTDGSHWFTMRSVVEKLILRGHEVVVVMPEVSWQLGRSLNCTVKTYSTSYTLEDLDREFKAFAHAQWKAQVRSIYSLLMGSYNDIFDLFFSNCRSLFKDKKLVEYLKESSFDAVFLDPFDNCGLIVAKYFSLPSVVFARGILCHYLEEGAQCPAPLSYVPRILLGFSDAMTFKERVRNHIMHLEEHLLCHRFFKNALEIASEILQTPVTEYDLYSHTSIWLLRTDFVLDYPKPVMPNMIFIGGINCHQGKPLPMEFEAYINASGEHGIVVFSLGSMVSEIPEKKAMAIADALGKIPQTVLWRYTGTRPSNLANNTILVKWLPQNDLLGHPMTRAFITHAGSHGVYESICNGVPMVMMPLFGDQMDNAKRMETKGAGVTLNVLEMTSEDLENALKAVINDKSYKENIMRLSSLHKDRPVEPLDLAVFWVEFVMRHKGAPHLRPAAHDLTWYQYHSLDVIGFLLAVVLTVAFITFKCCAYGYRKCLGKKGRVKKAHKSKTH
- Km [2]: 3225 µM
- Vmax [2]: 0.0141 µmol/min/mg
